Measured values reported in paper PMC10632456, “Cryo-EM structures of human magnesium channel MRS2 reveal gating and regulatory mechanisms” (Nature Communications, 2023).

Target: the molecule itself
Assay: cryo-EM structure; purified MRS2 at about 0.5 mg/ml in 20 mM HEPES, 150 mM NaCl, 40 mM MgCl2, 0.003% LMNG, pH 7.3; C5 and C1 reconstructions

B1: human MRS2 (Mitochondrial RNA Splicing 2 magnesium channel) (natural protein, UniProt Q9HD23 71-443, looked up)
chain: TSDVSQATLASVAPVFTVTKFDKQGNVTSFERKKTELYQELGLQARDLRFQHVMSITVRNNRIIMRMEYLKAVITPECLLILDYRNLNLEQWLFRELPSQLSGEGQLVTYPLPFEFRAIEALLQYWINTLQGKLSILQPLILETLDALVDPKHSSVDRSKLHILLQNGKSLSELETDIKIFKESILEILDEEELLEELCVSKWSDPQVFEKSSAGIDHAEEMELLLENYYRLADDLSNAARELRVLIDDSQSIIFINLDSHRNVMMRLNLQLTMGTFSLSLFGLMGVAFGMNLESSLEEDHRIFWLITGIMFMGSGLIWRRLLSFLGRQLEAPLPPMMASLPKKTLLADRSMELKNSLRLDGLGSGRSILTNR
notes: MRS2, human, UniProt Q9HD23; The full-length precursor was expressed; No step that removes the tag is described; also called HsMRS2; MRS2-Mg2+
  stoichiometry N: 5
